Data published in patent publication US20250276057A1.

Molecular target: IgE antibodies in four Pru p 7 reactive human sera
Assay: ImmunoCAP IgE inhibition, inhibitor in solution at 20 ug/mL, rPru p 7 on solid phase

B1: recombinant Cup s GRPb (protein)
chain: AQIDCDKECNRRCSKASLHDRCLKYCGICCEKCHCVPPGTAGNEDVCPCYAHLKNSKGGHKCP
percent inhibition of IgE binding to rPru p 7 (fourth serum): 80%
